Substrate: C[C@@H]1O[C@@H](Oc2ccc([N+](=O)[O-])cc2)[C@@H](O)[C@H](O)[C@@H]1O
Assay: purified protein
Assay type: biochemical, Paenibacillus thiaminolyticus
Settings: 50 mM phosphate pH 7.0, 37 °C (standard assay), substrate 0.01-35 mmol/L

B1: α-L-fucosidase iso2 (Paenibacillus thiaminolyticus) (protein)
chain: MRYRQVHLDFHTSEHISDIGRNFSKKNFQEMLQLGHVNSITVFAKCHHGWAYFPSATNEIHPRLDFDLLGAQIEAAHEIGVKVPIYISVGFDEKLAWEKPQWLMRDEADRMNWVDSFMKPGYHQFCLNTPYLDLVIEQVQEVVRKYDGDGIFLDIVGERTCYCTTCLKQMQADGLDPHNKEDVIANGRRIYANYTTRIREAIDAIKPGLPVFHNAGHIHQGRRDLMGMNSHLELESLPTGGWGYDHFPLSARYAQPTGFHFLGMTGKFHTFWGEFGGYKHPNALRYETALSLANGARCSIGDQLHPGGQMDRATYELIGKAYAEVEAKEAWCVNAVNLADVALLTVEAAGVQQESGAMYSGKVDMGAVRMLLEGKILFDIVDLESDWSGYKVLILPDSIVMKDTILPKVEAFLAAGGKVLASGRSGLNVELTRQMLPLGFTDSGLNPFRPDYFRPLCDGMANLGEAAYVMYGDGRRIELTDGTELGRREDPYFNRQAFRFCSHQHAPSSEQEGGPGMVESAQGIYIAWNVFEDYATKGSLILKEMVLFALRRLLGEQITLKTTLPAQGVTTLQHQAAERRYINHLLYASPVKRGERVEIIEDMIPLQQVEVQLQLPVTDVKRVYLAPQMTEIEFKASGGDVQFTVPQLECHQMVVVEYNE
notes: His-tagged fusion from pET16b-αLF2 (NdeI/XhoI), tag kept; E. coli BL21(DE3); Ni-NTA; primers encode start MRYRQVH and end VVEYNE
- Km: 520 ± 50 µM
- kcat: 111 ± 3 s⁻¹
- kcat/Km: 213 ± 30 (mmol/L)^-1 s^-1
